Test [1] concerns the target H77C 1a recombinant E1E2 (hepatitis C virus genotype 1a, isolate H77C) (UniProt P27958).
Test [2] shares this target. The source holds these as a separate data set.
A further test has as its target HC84.26. As to the kind of experiment: global alanine scanning epitope mapping. To be noted: antibody at 1 μg/ml.
In the next test the target is HMAb CBH-7. The experiment in a line: global alanine scanning epitope mapping. The following applies: antibody at 1 μg/ml.
Another test has as its target HC-1. The experiment in a line: global alanine scanning epitope mapping. To be noted: antibody at 1 μg/ml.
A further test addresses HMAb 212.1.1. The experiment in a line: global alanine scanning epitope mapping. To be noted: antibody at 2 μg/ml.
The next test has as its target HMAb CBH-5. The experiment in a line: global alanine scanning epitope mapping. To be noted: antibody at 1 μg/ml.
A further test deals with HMAb HC-11. The experiment in a line: global alanine scanning epitope mapping. To be noted: antibody at 1 μg/ml.
The target of test [3] is T1, complex of Hepatitis C virus genotype 1a P27958 (hepatitis C virus genotype 1a, isolate …, UniProt P27958).
T1 construct: envelope glycoprotein E1, cut product of the HCV polyprotein, genotype 1a isolate H77C; envelope glycoprotein E2, cut product of the HCV polyprotein, genotype 1a isolate H77C; residue numbers count on the H77C polyprotein; also called wt 1a H77C E1E2; 1a H77C E2
As to the kind of experiment: ELISA; blocking of E2 binding to CD81-LEL: HMAb at 10 μg/ml pre-incubated with H77C 1a E1E2 lysate (1 μg/ml E2) for 20 min at 4°C, then added to CD81-LEL wells. The following applies: one partner purified.

Turning to HMAb 212.1.1 (antibody), the % neutralization of 1a H77C HCVpp at 20 μg/ml in test [1] worked out at 89%. Further, in [2], the % neutralization of H77 (1a) Core-NS2 HCVcc at 25 μg/ml (FFU reduction) came to 41% and the IC50 of neutralization of H77 (1a) Core-NS2 HCVcc (FFU reduction) stood at 36 µg/mL.

Consider “H77C 1a recombinant E1E2 (from UniProt P27958) H638A”, for which the percent of parent was determined as 34 % WT in the test with HC84.26; 42 % WT in the test with HMAb CBH-7; 47 % WT in the test with HC-1; 26 % WT with HMAb 212.1.1; 6 % WT with HMAb CBH-5; 27 % WT with HMAb HC-11.

On to “H77C 1a recombinant E1E2 (from UniProt P27958) T425A”, for which the percent of parent is 69 % WT in the test with HC84.26; 101 % WT in the test with HMAb CBH-7; 51 % WT with HC-1; 18 % WT with HMAb 212.1.1; 1 % WT with HMAb CBH-5; 10 % WT with HMAb HC-11.

In the case of “H77C 1a recombinant E1E2 (from UniProt P27958) C429A”, the percent of parent with HC84.26 turned out to be 24 % WT; in the test with HMAb CBH-7, 157 % WT; with HC-1 it was 0 % WT; in the test with HMAb 212.1.1, 0 % WT; with HMAb CBH-5, 2 % WT; in the test with HMAb HC-11, 0 % WT.

B1: HMAb HC-11 (antibody, V domains shown)
VH: EVQLVESGAEVKKPGSSVKVSCKASGATFSSFIFSWVRQAPGQGPEWMGGIIPMFGTAKYAPRLQGRVTITADESTSTAYMDLSSLRFEDTAVYYCAMEVPGFCRGGSCSGYMDVWGKGTLVTVSP
VL: AAVLTQSPGTLSLSPGERATLSCRASHSVSSSNLAWYQQKPGQAPRLLMYGASRRATGIPDRFSGSGSGTDFTLTISRLEPEDFAVYYCQQYGSSPITFGQGTRLDIK
notes: germline IGHV1-69, 92% nucleotide identity; heavy chain CDR3; germline kappa 3-20, 96% nucleotide identity; light chain CDR3; also called domain B HMAb
In the case of B1, in [3], the binding result was “binds”.
